According to the supplement of paper PMC12764529:
± gives the half width of the 95% confidence interval.

Tests used:
[1] = folding stability dG unfold (combined trypsin and chymotrypsin); higher = more stable
Outline: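 Mini-proteins designed to be under 80 residues and free of cysteine were carried in a PA-tagged cDNA display construct and digested with trypsin and with chymotrypsin. Each protease was applied at 11 threefold-diluted concentrations, alongside a no-protease condition, before sequencing. K50 came from Bayesian fitting of the sequencing counts, and unfolding free energy was obtained by comparing it with a sequence-predicted unfolded-state K50 and a shared folded-state K50, for each protease separately or for both together. Designs were retained only if their AlphaFold2 dimer inter-PAE exceeded 15.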

[2] = folding stability dG unfold from trypsin proteolysis; higher = more stable
Procedure: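 Folding stability of de novo designed mini-proteins (<80 aa, no Cys; designed by TrROS, TrMRF, ProteinMPNN and the joint model) was measured by cDNA display proteolysis with trypsin and chymotrypsin. Each protease was used at 11 concentrations in a threefold dilution series plus a no-protease condition. K50 was inferred by Bayesian fitting of sequencing counts, and dG unfold was derived against a sequence-predicted unfolded-state K50 (Tsuboyama et al. method). Sequences shown include variable-length N-terminal GS-type padding (SAGGSAGG...) inside a display construct carrying a PA tag. Rows were kept only if the AF2 dimer inter-PAE was >15, to exclude likely homo-oligomers.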

| Sequence | folding stability dG unfold [1] [kJ/mol] | folding stability dG unfold [2] [kJ/mol] |
| --- | --- | --- |
| SAGGSAGGSAGGIEELAKKYPNIKIVEVKTVKVTETNKDGKKTEKTKTEIKIYKDGEEISAGGSAGGSAGGS [r10_0_TrROS_Hall] | < -4.18 | -0.0518 ± 0.837 |
| SAGGSAGGSAGGKIKVVFELPDAPLFLVAEADSPEELLERAVKLEEELGVPLKVVKVEGSAGGSAGGSAGGS [r10_1087_TrMRF] | < -4.18 | -2.13 ± 0.962 |
| SAGGSAGGSAGGKNMQEVPFPIEIKDPKNGKKIKIPVEVRRNPDDGKYQITPEALEELIKSAGGSAGGSAGG [r7_557_TrROS] | < -4.18 | -3.39 ± 1.3 |
| SAGGSAGGSAGGMEGFTAVTFTTTTSSNGTRTTTVTTTTPDGTVTTTTTTTPVTPPPNTASAGGSAGGSAGG [r11_998_JUSTAS] | 0.647 ± 0.586 | 2.1 ± 0.293 |
| SAGGSAGGSAGGMITIEEDPNKDLKTVTVYVPEKPKWVTVDVKPSETIEEALAKAEELLKSAGGSAGGSAGG [r7_138_JUSTAS] | -2.15 ± 0.753 | 0.129 ± 0.268 |
| SAGGSAGGSAGGMKIVLKVPENNPEAEKEAKKLKEEPGLKEVEVEFIPKSLVPEEPVLLSAGGSAGGSAGGS [r10_1110_JUSTAS] | < -4.18 | -1.4 ± 1.17 |
| SAGGSAGGSAGGMLVLIKTPKKPVLLSEEEVKSNPELLEKLKEEGFPIDGIEFLDKEKLSAGGSAGGSAGGS [r10_396_JUSTAS] | -1.89 ± 1.3 | -0.772 ± 0.418 |
| SAGGSAGGSAGGMNTNPKFVSEEDDKEIYREYNPSTGKETYIIYYPKPNTKKIVPPELISAGGSAGGSAGGS [r10_172_JUSTAS] | < -4.18 | -2.65 ± 0.962 |
| SAGGSAGGSAGGMPELTVETEGFPDGSYRVVVTNPGTGELVAVAERPSSTSVADFAKELASAGGSAGGSAGG [r7_633_TrMRF] | < -4.18 | -2.88 ± 0.544 |
| SAGGSAGGSAGGMPLNFSTVETEELPELGATVTTSTAPGYILTETRTPEGVEVQRYPALLSAGGSAGGSAGG [r7_280_JUSTAS] | 0.452 ± 0.837 | 3.6 ± 0.285 |
| SAGGSAGGSAGGMPVTVEVKEEELPGGEKVITVTVTYPDPVVETLEVKKLPPVDPNNKPSAGGSAGGSAGGS [r10_684_JUSTAS] | -0.429 ± 1.26 | 1.23 ± 0.418 |
| SAGGSAGGSAGGMTIKEIMKRFPGGGEIDITEIPGDRITIEMRFPNGNNRRRTIPPDEISAGGSAGGSAGGS [r10_612_TrROS] | -2.44 ± 1.38 | -0.167 ± 1.42 |
| SAGGSAGGSAGGMVRFPDGKEVETESEEELEELLKGVPVEEITIEDPEEKGEKKIPVKLSAGGSAGGSAGGS [r10_1191_JUSTAS] | -3.94 ± 2.01 | 0.572 ± 0.184 |
| SAGGSAGGSAGGNEDDNVPIGEKTVVKKVPPSSPVTITETIYRRPSTGTTSTTEKVIIESAGGSAGGSAGGS [r10_6_JUSTAS] | < -4.18 | -4.71 ± 1.76 |
| SAGGSAGGSAGGNKEVEIPIMIYWPDPNGKPNMHTVEIDMPNNDLPDIKDWAEDNPWTIMSAGGSAGGSAGG [r7_539_TrROS] | -2.22 ± 0.92 | 1.2 ± 0.209 |
| SAGGSAGGSAGGPSAVSSSSSSRTTTVPGTGTPLRVSSTTTTLDAATGASTTTTTTSPGASAGGSAGGSAGG [r11_1029_JUSTAS] | < -4.18 | -2.31 ± 0.544 |
| SAGGSAGGSAGGSAVERIIKEMREKFPPGKEVEIPIEVRTDNGNYVPIEIEFRIPPDQPSAGGSAGGSAGGS [r10_11_TrROS] | < -4.18 | -2.33 ± 1.67 |
| SAGGSAGGSAGGSGPEPKFTVEVDPEKDEVTFLVELEDKPLLLVVKDWPEDDPLLKNAFSAGGSAGGSAGGS [r4_328_TrMRF] | 0.345 ± 1.21 | 1.63 ± 0.406 |
| SAGGSAGGSAGGSGSSIPIVVEEKPEVSEDPSRVVLTTKIILKDPNGNSIETITEVELKSAGGSAGGSAGGS [r4_75_JUSTAS] | < -4.18 | -2.06 ± 0.276 |
| SAGGSAGGSAGGSKKTLPFPSVEDVVKYLKDLGLKDVKVDLPPGDLTINLDEIEEALKESAGGSAGGSAGGS [r4_101_TrMRF] | < -4.18 | -4 ± 2.38 |
| SAGGSAGGSAGGSMPVEILEVEEADPETGIRTYKLRDPVIGVESTIEGPLSPEEIEALLSAGGSAGGSAGGS [r4_228_JUSTAS] | < -4.18 | -3.38 ± 2.3 |

| Sequence | folding stability dG unfold [1] [kJ/mol] | folding stability dG unfold [2] [kJ/mol] |
| --- | --- | --- |
| SAGGSAGGSAGGSMPYVVVVKYPDGSTVTFPPGEDINVKVSPDKKGVEVVSVVPLSELLSAGGSAGGSAGGS [r4_122_JUSTAS] | -1.39 ± 0.837 | 0.749 ± 0.226 |
| SAGGSAGGSAGGSMYVIVTVPPGERLTFPLNPEIDVPEEEIKEKLKKELPVESIEILLPSAGGSAGGSAGGS [r4_116_JUSTAS] | -3.4 ± 4.14 | -1.51 ± 0.795 |
| SAGGSAGGSAGGSPLIVEFKGDELRNTIPSGFEVLSEERDPELGYVRAALRALGSGETLSAGGSAGGSAGGS [r4_435_TrMRF] | < -4.18 | -2.96 ± 1.13 |
| SAGGSAGGSAGGTEEEALEKAERLAKELGVDLKDVKILNPPDKFEAVFTIPGTGENIKLSAGGSAGGSAGGS [r10_161_JUSTAS] | -2.51 ± 4.06 | -2.11 ± 1.92 |
| SAGGSAGGSAGGTIRDAVKEGKPFKIRMRGKKGKTHTVTIRPDKPVKLPGISSIQVERDSAGGSAGGSAGGS [r10_700_TrROS] | -2.96 ± 3.35 | -1.19 ± 1.13 |
| SAGGSAGGSAGGTPFKAKDPKTDKVYLGEKDPVSGKVTITDPNTGNPIIVPGGEIEFIVSAGGSAGGSAGGS [r10_28_JUSTAS] | -1.18 ± 0.669 | 0.0398 ± 0.172 |
| SAGGSAGGSAGGVVKFPDDVLIERVETLPDGTVKIKVYKRIPGKGSPVEEIEFEDPGSSSAGGSAGGSAGGS [r10_934_JUSTAS] | < -4.18 | 0.983 ± 0.1 |
| SAGGSAGGSAGGWKTISVNELQDILREEGKPMTADDLIEDPNIKVEENPGNGMPTIEIPPSAGGSAGGSAGG [r7_180_TrROS] | -3.22 ± 3.31 | -3.73 ± 1 |
| SAGGSAGGSAGGYFIRYPGNGREIMIPPDDIEDFLDTLPPGFPPENVKIYPFDPNGKPISAGGSAGGSAGGS [r10_13_TrROS] | < -4.18 | -1.01 ± 0.837 |
| SAGGSAGGSAGKITIHMDPEGNYMVKTPGNERQFDSPEDADELADEFLLNGLPIEIHPHPSAGGSAGGSAGG [r17_35_TrROS] | < -4.18 | -3.15 ± 1.51 |
| SAGGSAGGSAGKKVVTIDIPIDNPEELEVAEEIAREAAKELGVPPEEIPVTWEGNYLRIESAGGSAGGSAGG [r11_218_TrMRF] | < -4.18 | -1.77 ± 0.314 |
| SAGGSAGGSAGKSPSESEVVITPETGVVEENGVKIKVTLTITTYSPSSTVTSTTKDPKLLSAGGSAGGSAGG [r11_551_JUSTAS] | -1.49 ± 0.628 | -0.35 ± 0.188 |
| SAGGSAGGSAGLNITYTTTITYPDGTVVTEPVVSSGSLEEAIARARELEKKHPNVEVEVSPEGSAGGSAGGS [r12_268_JUSTAS] | -0.475 ± 0.962 | 1.66 ± 0.331 |
| SAGGSAGGSAGMELAEEVARKGKPGTLVTFTPPGGRVQLATVRGDEVTPSGLSPDYSVTLTSAGGSAGGSAG [r3_244_JUSTAS] | < -4.18 | -1.55 ± 1.09 |
| SAGGSAGGSAGMIVIETPLSEYEKLKSPDIEVLEKSEGKVVIEIKVPPEPFYDEEGKPLKSAGGSAGGSAGG [r11_828_JUSTAS] | 1.2 ± 0.544 | 3.36 ± 0.142 |
| SAGGSAGGSAGMKIIVKSKEEAEKIAKEIAKKLGIEKKIKKIEIIVIPYKKTKDGKIEKISAGGSAGGSAGG [r17_237_TrROS_Hall] | -0.772 ± 2.55 | 1.51 ± 0.795 |
| SAGGSAGGSAGMPPGSIKVTVTSTAPDGTPSTTESTIPPSQVDKVKAEAAAKGWTVSFTGSAGGSAGGSAGG [r11_603_JUSTAS] | 1.03 ± 0.285 | 2.74 ± 0.142 |
| SAGGSAGGSAGMPPNTVVLRESLEPGRVVLTLAVVTPGSVASVEVTEEFPVVPGTGVVVGSAGGSAGGSAGG [r11_66_JUSTAS] | 0.582 ± 0.544 | 2.95 ± 0.159 |
| SAGGSAGGSAGMTISLSDLTKKGDIEKAKEEVEEIKKKNPEPKVEKVSVPPEKNEIYKLESAGGSAGGSAGG [r11_365_JUSTAS] | < -4.18 | -1.29 ± 0.92 |
| SAGGSAGGSAGMTLEEIEELLKKEGIDPSTLGNEKIAEIIKKKNPNTTITSSPEGTGYISKSAGGSAGGSAG [r3_375_JUSTAS] | < -4.18 | 1.13 ± 0.753 |
| SAGGSAGGSAGMVFPVDGKEVVIDRGADDALRVTVFGPDGSASEAVFPGKDIPTVLKALSSAGGSAGGSAGG [r11_934_TrMRF] | < -4.18 | -0.962 ± 1 |
